# Test results: article PMC10769223
# Target: Galectin-3-binding protein in conditioned media of HEK293T cells expressing rSulf-2 (human (endogenous in HEK293T)) (UniProt Q08380)
# Assay: affinity purification with mass spectrometry
# Sequence of UniProt Q08380 (Q08380 19-585): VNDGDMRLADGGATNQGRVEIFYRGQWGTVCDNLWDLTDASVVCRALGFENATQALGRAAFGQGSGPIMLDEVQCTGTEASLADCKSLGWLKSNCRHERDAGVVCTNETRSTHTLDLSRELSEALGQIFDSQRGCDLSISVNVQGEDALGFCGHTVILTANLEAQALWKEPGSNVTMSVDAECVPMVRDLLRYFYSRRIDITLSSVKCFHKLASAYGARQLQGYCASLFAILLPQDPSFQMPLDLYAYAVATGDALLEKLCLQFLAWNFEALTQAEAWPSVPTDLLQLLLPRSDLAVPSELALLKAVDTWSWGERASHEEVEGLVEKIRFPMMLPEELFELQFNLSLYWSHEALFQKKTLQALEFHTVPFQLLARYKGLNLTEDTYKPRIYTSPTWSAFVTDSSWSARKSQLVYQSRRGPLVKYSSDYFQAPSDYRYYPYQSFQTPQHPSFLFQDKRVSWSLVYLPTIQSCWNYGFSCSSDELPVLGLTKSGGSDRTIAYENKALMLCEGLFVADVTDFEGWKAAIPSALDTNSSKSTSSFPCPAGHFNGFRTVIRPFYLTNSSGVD
substance,measurement,value
rSulf-2 (HEK293T lentiviral) treated with chondroitinase ABC (enzyme),fold change of the Sulf-2/LG3BP peak-area ratio against the untreated control,3 fold
